The source of these data is article PMC11758708, “Natural variation in MdNAC5 contributes to fruit firmness and ripening divergence in apple”.

The target in this series is MdNAC5A (Malus x domestica (Fuji / Cripp's Pink), UniProt A0A498K6T8 1-364). The series is described as follows: EMSA; EMSA/Gel-Shift Kit (Beyotime) per instructions; buffer, salt, pH and temperature not stated. The settings on record: protein: recombinant; tags: His (pET-32a); chain copies: 2; label: 3' biotin (both strands); blunt. (Mobility shift assays separate free from complexed probe on a gel.)
Chain of MdNAC5A (A0A498K6T8 entry or part of it): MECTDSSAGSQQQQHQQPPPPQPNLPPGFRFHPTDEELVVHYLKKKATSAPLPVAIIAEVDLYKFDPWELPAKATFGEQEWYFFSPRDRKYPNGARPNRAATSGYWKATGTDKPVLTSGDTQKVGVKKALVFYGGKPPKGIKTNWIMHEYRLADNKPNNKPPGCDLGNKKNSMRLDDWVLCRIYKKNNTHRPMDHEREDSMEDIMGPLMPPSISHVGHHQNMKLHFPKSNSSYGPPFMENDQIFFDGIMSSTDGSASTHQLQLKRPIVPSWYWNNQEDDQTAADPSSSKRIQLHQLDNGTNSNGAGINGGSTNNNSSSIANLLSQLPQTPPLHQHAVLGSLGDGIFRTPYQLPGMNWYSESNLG

B1: MdACS1 probe (dsDNA)
DNA 1: CCTGTGACAATATTACATGTGGCATGTCAATTGAGA
DNA 2: TCTCAATTGACATGCCACATGTAATATTGTCACAGG
In the case of B1, the binding result is on record as “binds”.
